As a reminder, the Kd is the free concentration of one partner at which half of the binding sites on the other are occupied at equilibrium, for simple one-to-one binding. A higher Kd goes with weaker binding.

The target in the test is Xenopus tropicalis tubulin tyrosine ligase (residues 2–377) (Xenopus tropicalis). In words: AUC.

VDSVEGEGEEEGEE [14-residue α–tubulin C-terminal peptide (VDSVEGEGEEEGEE)]: the Kd was ~144 µM.
